Reference: patent publication US20180303952A1 (CYTOMX THERAPEUTICS, published 2018)
Changes are numbered by the printed parent chain.

T1: human CD147 protein (adsorbed to ELISA plates) (human, UniProt P35613-2 22-205, limits assumed)
T1 construct: also called human CD147 polypeptide; Basigin
T1 sequence (looked up): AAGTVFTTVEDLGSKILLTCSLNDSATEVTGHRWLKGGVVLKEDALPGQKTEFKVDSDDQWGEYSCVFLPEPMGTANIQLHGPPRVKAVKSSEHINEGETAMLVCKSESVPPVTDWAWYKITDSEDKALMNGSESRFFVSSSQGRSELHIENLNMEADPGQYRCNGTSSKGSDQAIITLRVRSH

B1: anti-human CD147 activatable antibody hu 3A11 Hc1/Lc1-217-3001 (antibody)
VH: EVQLVESGGGLVQPGGSLRLSCAASGFTFSNYWMDWVRQAPGKGLEWVGEIRLKSYNYATHYAASVKGRFTISRDDSKNSVYLQMNSLKTEDTAVYYCTAAGTDYWGQGTLVTVSS
VL: QSLFCSGFRCDQYASGGGSSGGSAVGLLAPPGGLSGRSDNHGGSDIQMTQSPSSLSASVGDRVTITCRASQSVRTDVGWYQQKPGKAPKLLIYYSSNRYTGVPSRFSGSGSGTDFTLTISSLQPEDFATYYCQQDYSSPYTFGQGTKLEIK
notes: also called hu 3A11-217-3001
B2: anti-human CD147 activatable antibody hu 3A11 Hc1/Lc1-414.1-3001 (antibody, V domains shown)
VH: B1 VH
VL: THGPCHFKPNCGGGSSGGSAVGLLAPPGGLSGRSDNHGGSDIQMTQSPSSLSASVGDRVTITCRASQSVRTDVGWYQQKPGKAPKLLIYYSSNRYTGVPSRFSGSGSGTDFTLTISSLQPEDFATYYCQQDYSSPYTFGQGTKLEIK
notes: also called hu 3A11-414.1-3001
B3: anti-human CD147 activatable antibody hu 3A11 Hc1/Lc1-415.1-2012 (antibody, V domains shown)
VH: B1 VH
VL: LHGPCHFNNCNTLGGGSSGGSISSGLLSGRSANPGGGSDIQMTQSPSSLSASVGDRVTITCRASQSVRTDVGWYQQKPGKAPKLLIYYSSNRYTGVPSRFSGSGSGTDFTLTISSLQPEDFATYYCQQDYSSPYTFGQGTKLEIK
notes: also called hu 3A11-415.1-2012
B4: anti-human CD147 activatable antibody hu 3A11 Hc1/Lc1-419.3-3001 (antibody, V domains shown)
VH: B1 VH
VL: LHGPCHYDLKCKGGGSSGGSAVGLLAPPGGLSGRSDNHGGSDIQMTQSPSSLSASVGDRVTITCRASQSVRTDVGWYQQKPGKAPKLLIYYSSNRYTGVPSRFSGSGSGTDFTLTISSLQPEDFATYYCQQDYSSPYTFGQGTKLEIK
notes: also called hu 3A11-419.3-3001
B5: anti-human CD147 activatable antibody hu 3A11 Hc1/Lc1-419.2-3001 (antibody, V domains shown)
VH: B1 VH
VL: LHGPCHYDLKCKNNGGGSSGGSAVGLLAPPGGLSGRSDNHGGSDIQMTQSPSSLSASVGDRVTITCRASQSVRTDVGWYQQKPGKAPKLLIYYSSNRYTGVPSRFSGSGSGTDFTLTISSLQPEDFATYYCQQDYSSPYTFGQGTKLEIK
notes: also called hu 3A11-419.2-3001
B6: anti-human CD147 activatable antibody hu 3A11 Hc1/Lc1-216-3001 (antibody)
VH: B1 VH
VL: HGPCHYNFNSGCAQFGGGSSGGSAVGLLAPPGGLSGRSDNHGGSDIQMTQSPSSLSASVGDRVTITCRASQSVRTDVGWYQQKPGKAPKLLIYYSSNRYTGVPSRFSGSGSGTDFTLTISSLQPEDFATYYCQQDYSSPYTFGQGTKLEIK
notes: also called hu 3A11-216-3001
B7: anti-human CD147 activatable antibody hu 3A11 Hc1/Lc1-419-3001 (antibody)
VH: B1 VH
VL: LHGPCHYDLKCKNNTGGGSSGGSAVGLLAPPGGLSGRSDNHGGSDIQMTQSPSSLSASVGDRVTITCRASQSVRTDVGWYQQKPGKAPKLLIYYSSNRYTGVPSRFSGSGSGTDFTLTISSLQPEDFATYYCQQDYSSPYTFGQGTKLEIK
notes: also called hu 3A11-419-3001
B8: anti-human CD147 activatable antibody hu 3A11 Hc1/Lc1-414.3-2012 (antibody, V domains shown)
VH: B1 VH
VL: THGPCHFKPNCAYPTGGGSSGGSISSGLLSGRSANPGGGSDIQMTQSPSSLSASVGDRVTITCRASQSVRTDVGWYQQKPGKAPKLLIYYSSNRYTGVPSRFSGSGSGTDFTLTISSLQPEDFATYYCQQDYSSPYTFGQGTKLEIK
notes: also called hu 3A11-414.3-2012
B9: anti-human CD147 activatable antibody hu 3A11 Hc1/Lc1-440-3001 (antibody)
VH: B1 VH
VL: TCLHLTRFNYLSCNKGGGSSGGSAVGLLAPPGGLSGRSDNHGGSDIQMTQSPSSLSASVGDRVTITCRASQSVRTDVGWYQQKPGKAPKLLIYYSSNRYTGVPSRFSGSGSGTDFTLTISSLQPEDFATYYCQQDYSSPYTFGQGTKLEIK
notes: also called hu 3A11-440-3001
B10: humanized anti-human CD147 antibody hu 3A11 Lc2/hu 3A11 Hc2 (antibody, V domains shown)
VH: B1 VH with D35N, V81L, T99A, A100R
VL: DIQMTQSPSSLSASVGDRVTITCKASQSVRTDVAWYQQKPGKAPKLLIYYSSNRYTGVPSRFSGSGSGTDFTLTISSLQPEDFATYYCQQDYSSPFTFGQGTKLEIK
notes: also called hu 3A11 (hu Lc2/hu Hc2)
B11: anti-human CD147 activatable antibody hu 3A11 Hc1/Lc1-419.3-2012 (antibody, V domains shown)
VH: B1 VH
VL: LHGPCHYDLKCKGGGSSGGSISSGLLSGRSANPGGGSDIQMTQSPSSLSASVGDRVTITCRASQSVRTDVGWYQQKPGKAPKLLIYYSSNRYTGVPSRFSGSGSGTDFTLTISSLQPEDFATYYCQQDYSSPYTFGQGTKLEIK
notes: also called hu 3A11-419.3-2012
B12: anti-human CD147 activatable antibody hu 3A11 Hc1/Lc1-416-3001 (antibody)
VH: B1 VH
VL: WQRECSQKNICQYYIGGGSSGGSAVGLLAPPGGLSGRSDNHGGSDIQMTQSPSSLSASVGDRVTITCRASQSVRTDVGWYQQKPGKAPKLLIYYSSNRYTGVPSRFSGSGSGTDFTLTISSLQPEDFATYYCQQDYSSPYTFGQGTKLEIK
notes: also called hu 3A11-416-3001
B13: anti-human CD147 activatable antibody hu 3A11 Hc1/Lc1-422-3001 (antibody)
VH: B1 VH
VL: B7 VL with D8M, L9N, K10T, K12H, N14V, T15K
notes: also called hu 3A11-422-3001
B14: anti-human CD147 activatable antibody hu 3A11 Hc1/Lc1-445-3001 (antibody)
VH: B1 VH
VL: B7 VL with L1S, Y7F, L9Y, K10Q, K12I
notes: also called hu 3A11-445-3001
B15: anti-human CD147 activatable antibody hu 3A11 Hc1/Lc1-414.2-3001 (antibody)
VH: B1 VH
VL: B7 VL with L1T, Y7F, D8K, L9P, K10Q, K12S, N13Y, N14P
notes: also called hu 3A11-414.2-3001
B16: humanized anti-human CD147 antibody hu 3A11 Lc4/hu 3A11 Hc2 (antibody, V domains shown)
VH: B1 VH with D35N, V81L, T99A, A100R
VL: B10 VL with A13V, S67Y, L73F, L78V
notes: also called hu 3A11 (hu Lc4/hu Hc2)
B17: anti-human CD147 activatable antibody hu 3A11 Hc1/Lc1-443-3001 (antibody)
VH: B1 VH
VL: B7 VL with L1A, D8N, L9T, K10E, K12N, N13S, T15K
notes: also called hu 3A11-443-3001
B18: anti-human CD147 activatable antibody hu 3A11 Hc1/Lc1-221-3001 (antibody)
VH: B1 VH
VL: B7 VL with L1D, D8V, L9S, K10C, C11T, K12T, N13I, T15H
notes: also called hu 3A11-221-3001
B19: anti-human CD147 activatable antibody hu 3A11 Hc1/Lc1-414.4-2012 (antibody, V domains shown)
VH: B1 VH
VL: B8 VL with K8R
notes: also called hu 3A11-414.4-2012
B20: anti-human CD147 activatable antibody hu 3A11 Hc1/Lc1-415-2012 (antibody, V domains shown)
VH: B1 VH
VL: B8 VL with T1L, K8N, P9N, N10C, C11N, A12T, Y13L, P14K, T15L
notes: also called hu 3A11-415-2012
B21: anti-human CD147 activatable antibody hu 3A11 Hc1/Lc1-215-3001 (antibody)
VH: B1 VH
VL: RYQSCHSYWCTEGNHGGGSSGGSAVGLLAPPGGLSGRSDNHGGSDIQMTQSPSSLSASVGDRVTITCRASQSVRTDVGWYQQKPGKAPKLLIYYSSNRYTGVPSRFSGSGSGTDFTLTISSLQPEDFATYYCQQDYSSPYTFGQGTKLEIK
notes: also called hu 3A11-215-3001
B22: anti-human CD147 activatable antibody hu 3A11 Hc1/Lc1-415-3001 (antibody)
VH: B1 VH
VL: B7 VL with Y7F, D8N, L9N, K10C, C11N, K12T, N13L, N14K, T15L
notes: also called hu 3A11-415-3001
B23: anti-human CD147 activatable antibody hu 3A11 Hc1/Lc1-414.3-3001 (antibody)
VH: B1 VH
VL: B7 VL with L1T, Y7F, D8K, L9P, K10N, K12A, N13Y, N14P
notes: also called hu 3A11-414.3-3001
B24: anti-human CD147 activatable antibody hu 3A11 Hc1/Lc1-419.1-3001 (antibody)
VH: B1 VH
VL: B7 VL with N13Q
notes: also called hu 3A11-419.1-3001
B25: anti-human CD147 activatable antibody hu 3A11 Hc1/Lc1-253-3001 (antibody)
VH: B1 VH
VL: B7 VL with L1V, Y7W, D8S, L9V, K10E, K12L, N13S, T15V
notes: also called hu 3A11-253-3001
B26: anti-human CD147 activatable antibody hu 3A11 Hc1/Lc1-428-3001 (antibody)
VH: B1 VH
VL: B7 VL with L1W, D8T, L9K, K10C, C11D, K12D, N13H, N14T, T15M
notes: also called hu 3A11-428-3001
B27: anti-human CD147 activatable antibody hu 3A11 Hc1/Lc1-414-3001 (antibody)
VH: B1 VH
VL: B7 VL with L1T, Y7F, D8K, L9P, K10N, K12S, N13Y, N14P
notes: also called hu 3A11-414-3001

How the values were obtained:
[1] = molecular target: T1, human CD147 protein (adsorbed to ELISA …); assay: ELISA, human CD147 protein adsorbed to plate, intact activatable antibody; apparent KD
Protocol: Humanized anti-human CD147 antibodies of the present disclosure hu 3A11 Hc1/Lc1 (VL of SEQ ID NO: 5 and VH of SEQ ID NO: 1) were used as a control.
(§1) Using a standard ELISA protocol, human CD147 protein was absorbed to ELISA plates and subsequently incubated with the indicated concentration of antibody of the present disclosure. Bound humanized activatable antibody of the present disclosure was detected with anti-human Fab-peroxidase secondary antibody and Ultra TMB detection (Thermo Fisher Scientific).

[2] = molecular target: T1, human CD147 protein (adsorbed to ELISA …); assay: as above; remark: listed apart in the source
Protocol: as §1, with “For the exemplary assay depicted in FIGS. 7A-7C,” for “Using a”, “protocol was used, in which” for “protocol,”

[3] = molecular target: T1, human CD147 protein (adsorbed to ELISA …); assay: ELISA, human CD147 protein adsorbed to plate, anti-human Fab-peroxidase detection; apparent KD
Protocol: The antibodies of the present disclosure that were assayed in this exemplary study were hu 3A11 Lc1/hu 3A11 Hc1 (VL of SEQ ID NO: 5 and VH of SEQ ID NO: 1), hu 3A11 Lc2/hu 3A11 Hc2 (VL of SEQ ID NO: 6 and VH of SEQ ID NO: 2), hu 3A11 Lc4/hu 3A11 Hc2 (VL of SEQ ID NO: 8 and VH of SEQ ID NO: 2). Using a standard ELISA protocol, human CD147 protein was absorbed to ELISA plates and subsequently incubated with the indicated concentration of antibody of the present disclosure. Bound humanized antibody of the present disclosure was detected with anti-human Fab-peroxidase secondary antibody, and Ultra TMB detection (Thermo Fisher Scientific).

Row | Binder | Kd [1] [nM] | Kd [2] [nM] | other results
1 | B1 | 1.61 |  | 
2 | B2 |  | 13.8 | 
3 | B3 |  | 4.68 | 
4 | B4 |  | 73.5 | 
5 | B5 |  | 20.8 | 
6 | B6 | 0.89 |  | 
7 | B7 | 9.43 |  | 
8 | B8 |  | 5.92 | 
9 | B9 | 1.23 |  | 
10 | B10 |  |  | Kd [3]: 0.726 nM
11 | B11 |  | 10 | 
12 | B12 | 0.49 |  | 
13 | B13 | 1.55 |  | 
14 | B14 | 7.86 |  | 
15 | B15 |  | 15.7 | 
16 | B16 |  |  | Kd [3]: 0.902 nM
17 | B17 | 7.4 |  | 
18 | B18 | 2.5 |  | 
19 | B19 |  | 6.73 | 
20 | B20 |  | 1.43 | 
21 | B21 | 5.53 |  | 
22 | B22 | 4.72 |  | 
23 | B23 |  | 20.2 | 
24 | B24 |  | 44 | 
25 | B25 | 0.87 |  | 
26 | B26 | 7.63 |  | 
27 | B27 | 16 | 24.7 | 
